Data reported in article PMC4004102.

Experiments:
[1] = molecular target: FAM-AIP-I (fluorescein-labeled AIP-I analog) (Staphylococcus aureus); assay: fluorescence polarisation
[2] = molecular target: AgrC-I (wild type) dimer embedded in nanodiscs (Staphylococcus aureus); assay: SEC-MALS

B1: AgrC-I (wild type) dimer embedded in nanodiscs (receptor)
chain: MELLNSYNFVLFVLTQMILMFTIPAIISGIKYSKLDYFFIIVISTLSLFLFKMFDSASLIILTSFIIIMYFVKIKWYSILLIMTSQIILYCANYMYIVIYAYITKISDSIFVIFPSFFVVYVTISILFSYIINRVLKKISTPYLILNKGFLIVISTILLLTFSLFFFYSQINSDEAKVIRQYSFIFIGITIFLSILTFVISQFLLKEMKYKRNQEEIETYYEYTLKIEAINNEMRKFRHDYVNILTTLSEFIREDDMPGLRDYFNKNIVPMKDNLQMNAIKLNGIENLKVREIKGLITAKILRAQEMNIPISIEIPDEVSSINLNMIDLSRSIGIILDNAIEASTEIDDPIIRVAFIESENSVTFIVMNKCADDIPRIHELFQESFSTKGEGRGLGLSTLKEIADNADNVLLDTIIENGFFIQKVEIINN
modifications: not checked
- Kd [1]: 122 nM
- stoichiometry N [2]: 2
